Target: Mcm2EE-7 S164E;S170E (Saccharomyces cerevisiae) (UniProt P29469+P24279+P30665+P29496+P53091+P38132)
Assay: gel filtration

## M13mp19 circular ssDNA
  binding signal (fold bound vs Mcm2WT-7 at 0.5 nM ssDNA): > 3

Reference: PMC3167627
